The supplement of paper PMC7877785
± gives the uncertainty stated by the source.

Assay: self-splicing fitness, log relative to wild type (ln ratio); higher = more splicing; Tetrahymena group I intron in knt gene, E. coli kanamycin selection, DiMSum; sequences stand for … in CUCUCU…GGAGGGAAAAGUUAUCAGGCAUGCACCUGGUAGCUAGUCUUUAAACCAAUAGAUUGCAUCGGUUUAAAAGGCAAGACCGUCAAAUUGCGGGAAAGGGGUCAACAGCCGUUCAGUACCAAGUCUCAGGGGAAACUUUGAGAUGGCCUUGCAAAGGGUAUGGUAAUAAGCUGACGGACAUGGUCCUAACCACGCAGCCAAGUCCUAAGUCAACAGAUCUUCUGUUGAUAUGGAUGCAGUUCACAGACUAAAUGUCGGUCGGGGAAGAUGUAUUCUUCUCAUAAGAUAUAGUCGGACCUCUCCUUAAUGGGAGCUAGCGGAUGAAGUGAUGCAACACUGGAGCCGCUGGGAACUAAUUUGUAUGCGAAAGUAUAUUGAUUAGUUUUGGAGUACUCGUGGUCG
Procedure, shortened: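 Six replicate transformations of E. coli BL21(DE3) with a pET-22b(+) library were grown overnight at 37°C or 30°C. The library randomised all eight P1ex-region intron nucleotides, the intron lying in the knt kanamycin-resistance gene, and plates were LB agar with or without 25 μg/mL kanamycin plus 100 μg/mL carbenicillin, 50 μM IPTG and 0.2% rhamnose. Pooled colonies were amplicon-sequenced on an Illumina HiSeq 2500, and fitness is the DiMSum error-weighted combination of wild-type-normalised replicate fold changes, kanamycin versus none.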

Row | Sequence | self-splicing fitness (ln) (30 °C) | self-splicing fitness (ln) (37 °C)
1 | AAGAAGCAAUAUUACGCGGC | -3.5 ± 0.49 | -2.17 ± 0.44
2 | AAGAAGCAAUAUUACGCGUG | -0.716 ± 0.073 | -0.537 ± 0.093
3 | AAGAAGCAAUAUUACGGAUA | -1.67 ± 0.1 | -1.38 ± 0.12
4 | AAGAAGCAAUAUUACGGCCG | -1.47 ± 0.12 | -0.0374 ± 0.15
5 | AAGAAGCAAUAUUACGUAAU | -1.89 ± 0.097 | -1.2 ± 0.12
6 | AAGAAGCAAUAUUACGUCUA | -0.234 ± 0.066 | -0.565 ± 0.098
7 | AAGAAGCAAUAUUACGUGAU | -1.96 ± 0.11 | -2.09 ± 0.11
8 | AAGAAGCAAUAUUACGUUCA | -0.746 ± 0.077 | 0.133 ± 0.099
9 | AAGAAGCAAUAUUACGUUUA | -1.62 ± 0.074 | -1.01 ± 0.077
10 | AAGCAGCAAUAUUACGAAAC | -3.7 ± 0.4 | -1.8 ± 0.38
11 | AAGCAGCAAUAUUACGACAC | -1.25 ± 0.058 | -0.831 ± 0.073
12 | AAGCAGCAAUAUUACGACUU | -0.223 ± 0.074 | -0.323 ± 0.086
13 | AAGCAGCAAUAUUACGAGGA | -2.82 ± 0.22 | -2.16 ± 0.18
14 | AAGCAGCAAUAUUACGCAAA | -1.82 ± 0.14 | -1.65 ± 0.13
15 | AAGCAGCAAUAUUACGCAAG | -2.43 ± 0.19 | -0.222 ± 0.098
16 | AAGCAGCAAUAUUACGCUGC | -3.47 ± 0.13 | -3.05 ± 0.18
17 | AAGCAGCAAUAUUACGCUUC | -2.97 ± 0.18 | -2.81 ± 0.26
18 | AAGCAGCAAUAUUACGGGAG | -3.74 ± 0.16 | -3.05 ± 0.23
19 | AAGCAGCAAUAUUACGGUCC | -1.17 ± 0.1 | -0.771 ± 0.17
20 | AAGCAGCAAUAUUACGGUGC | -3.29 ± 0.15 | -1.61 ± 0.14
21 | AAGCAGCAAUAUUACGGUUG | -3.08 ± 0.14 | -2.01 ± 0.15
22 | AAGCAGCAAUAUUACGUGCC | -1.23 ± 0.11 | -1.47 ± 0.12
23 | AAGCAGCAAUAUUACGUGGC | -4.15 ± 0.39 | -1.92 ± 0.2
24 | AAGGAGCAAUAUUACGACCA | – | -1.82 ± 0.31

Row | Sequence | self-splicing fitness (ln) (30 °C) | self-splicing fitness (ln) (37 °C)
25 | AAGGAGCAAUAUUACGACGU | -1.88 ± 0.13 | -0.122 ± 0.14
26 | AAGGAGCAAUAUUACGAUUC | -1.13 ± 0.19 | -1.78 ± 0.48
27 | AAGGAGCAAUAUUACGAUUG | -3.8 ± 0.32 | -0.948 ± 0.15
28 | AAGGAGCAAUAUUACGCCCU | -1.87 ± 0.35 | -1.91 ± 0.43
29 | AAGGAGCAAUAUUACGCGGA | -2.07 ± 0.13 | -2.71 ± 0.2
30 | AAGGAGCAAUAUUACGGAGA | -3.62 ± 0.31 | -2.35 ± 0.27
31 | AAGGAGCAAUAUUACGGCUG | -2.21 ± 0.23 | -1.37 ± 0.27
32 | AAGGAGCAAUAUUACGGGAU | -4.25 ± 0.29 | -3.56 ± 0.36
33 | AAGGAGCAAUAUUACGGUUU | -2.45 ± 0.12 | -1.07 ± 0.11
34 | AAGGAGCAAUAUUACGUAUG | -3.31 ± 0.34 | -3.58 ± 0.33
35 | AAGGAGCAAUAUUACGUCAA | -1.97 ± 0.22 | -2.96 ± 0.4
36 | AAGGAGCAAUAUUACGUCUC | -2.84 ± 0.48 | –
37 | AAGGAGCAAUAUUACGUGAU | -2.78 ± 0.18 | -2.45 ± 0.3
38 | AAGGAGCAAUAUUACGUGUG | -3.39 ± 0.17 | -0.957 ± 0.15
39 | AAGGAGCAAUAUUACGUUCA | -1.44 ± 0.077 | -0.0364 ± 0.088
40 | AAGGAGCAAUAUUACGUUUG | -3.57 ± 0.42 | -2.82 ± 0.23
41 | AAGUAGCAAUAUUACGAAUG | -3.14 ± 0.24 | -1.72 ± 0.14
42 | AAGUAGCAAUAUUACGACUG | 0.323 ± 0.082 | -0.593 ± 0.11
43 | AAGUAGCAAUAUUACGAGCU | -0.679 ± 0.057 | -0.289 ± 0.087
44 | AAGUAGCAAUAUUACGAUAU | -1.21 ± 0.066 | -0.506 ± 0.084
45 | AAGUAGCAAUAUUACGCAUG | -2.05 ± 0.069 | -0.492 ± 0.074
46 | AAGUAGCAAUAUUACGCCUU | -1.39 ± 0.12 | -1.01 ± 0.19
47 | AAGUAGCAAUAUUACGCGGG | -2.89 ± 0.19 | -2.84 ± 0.2
48 | AAGUAGCAAUAUUACGCUAA | -1.81 ± 0.14 | -0.343 ± 0.15

Row | Sequence | self-splicing fitness (ln) (30 °C) | self-splicing fitness (ln) (37 °C)
49 | AAGUAGCAAUAUUACGCUCG | -0.592 ± 0.13 | -0.234 ± 0.17
50 | AAGUAGCAAUAUUACGCUUU | -3.18 ± 0.24 | -3.19 ± 0.47
51 | AAGUAGCAAUAUUACGGACG | -2.73 ± 0.18 | -1.74 ± 0.2
52 | AAGUAGCAAUAUUACGGAGG | -3.89 ± 0.33 | -2.5 ± 0.33
53 | AAGUAGCAAUAUUACGGCAG | -2.54 ± 0.18 | -1.77 ± 0.18
54 | AAGUAGCAAUAUUACGGCUG | -0.444 ± 0.083 | -0.731 ± 0.13
55 | AAGUAGCAAUAUUACGGCUU | -1.4 ± 0.12 | -0.634 ± 0.14
56 | AAGUAGCAAUAUUACGGUGG | -3.62 ± 0.22 | -2.85 ± 0.26
57 | AAGUAGCAAUAUUACGGUUC | -2.75 ± 0.19 | -2.08 ± 0.23
58 | AAGUAGCAAUAUUACGUCCA | -0.464 ± 0.18 | -0.521 ± 0.17
59 | AAGUAGCAAUAUUACGUCGC | -2.54 ± 0.25 | -1.8 ± 0.23
60 | AAGUAGCAAUAUUACGUGUA | -1.98 ± 0.13 | -1.41 ± 0.14
61 | AAGUAGCAAUAUUACGUGUU | -2.27 ± 0.093 | -1.2 ± 0.095
62 | AAGUAGCAAUAUUACGUUUA | -1.63 ± 0.13 | -0.835 ± 0.11
63 | AAUAAGCAAUAUUACGAAAA | -2.98 ± 0.28 | -1.76 ± 0.2
64 | AAUAAGCAAUAUUACGAAAU | -2.34 ± 0.14 | -1.4 ± 0.15
65 | AAUAAGCAAUAUUACGAAUU | -1.93 ± 0.1 | -1.58 ± 0.12
66 | AAUAAGCAAUAUUACGACAG | -1.64 ± 0.13 | -0.432 ± 0.14
67 | AAUAAGCAAUAUUACGACCC | -0.924 ± 0.12 | 0.479 ± 0.17
68 | AAUAAGCAAUAUUACGACUC | 0.0667 ± 0.14 | 0.341 ± 0.2
69 | AAUAAGCAAUAUUACGAGAU | -3.82 ± 0.2 | -2.24 ± 0.21
70 | AAUAAGCAAUAUUACGCACU | 0.285 ± 0.075 | -0.118 ± 0.082
71 | AAUAAGCAAUAUUACGCCGG | -1.87 ± 0.13 | -1.07 ± 0.18
72 | AAUAAGCAAUAUUACGCGCA | -0.438 ± 0.081 | -0.0417 ± 0.11

Row | Sequence | self-splicing fitness (ln) (30 °C) | self-splicing fitness (ln) (37 °C)
73 | AAUAAGCAAUAUUACGCGGC | -2.74 ± 0.24 | -2.03 ± 0.33
74 | AAUAAGCAAUAUUACGCUUC | -3.51 ± 0.23 | -2.59 ± 0.23
75 | AAUAAGCAAUAUUACGGCCC | -0.731 ± 0.17 | 0.533 ± 0.27
76 | AAUAAGCAAUAUUACGGCGU | 0.428 ± 0.082 | 0.242 ± 0.1
77 | AAUAAGCAAUAUUACGGCUG | -0.2 ± 0.085 | 0.42 ± 0.1
78 | AAUAAGCAAUAUUACGGGAC | -3.76 ± 0.3 | -2.17 ± 0.21
79 | AAUAAGCAAUAUUACGGGUG | -1.59 ± 0.12 | -1.04 ± 0.11
80 | AAUAAGCAAUAUUACGUAAC | – | -1.85 ± 0.25
81 | AAUAAGCAAUAUUACGUAUC | -1.6 ± 0.087 | -1.36 ± 0.11
82 | AAUAAGCAAUAUUACGUCCU | -0.0473 ± 0.076 | 0.0333 ± 0.088
83 | AAUAAGCAAUAUUACGUCGU | -0.729 ± 0.079 | -0.613 ± 0.093
84 | AAUAAGCAAUAUUACGUCUC | -1.68 ± 0.11 | -0.799 ± 0.13
85 | AAUAAGCAAUAUUACGUUAU | -2.45 ± 0.13 | -1.58 ± 0.16
86 | AAUCAGCAAUAUUACGAAUU | -0.152 ± 0.1 | 0.193 ± 0.13
87 | AAUCAGCAAUAUUACGACGG | -1.73 ± 0.097 | -0.991 ± 0.13
88 | AAUCAGCAAUAUUACGACGU | 0.0618 ± 0.056 | 0.666 ± 0.07
89 | AAUCAGCAAUAUUACGACUG | -0.833 ± 0.097 | 0.27 ± 0.11
90 | AAUCAGCAAUAUUACGACUU | 0.234 ± 0.068 | 0.142 ± 0.083
91 | AAUCAGCAAUAUUACGAGGC | -3.28 ± 0.25 | -2.47 ± 0.23
92 | AAUCAGCAAUAUUACGAUAA | -0.0103 ± 0.084 | -0.0641 ± 0.1
93 | AAUCAGCAAUAUUACGAUUG | -1.54 ± 0.064 | -0.631 ± 0.085
94 | AAUCAGCAAUAUUACGCACC | -0.409 ± 0.17 | 0.0564 ± 0.22
95 | AAUCAGCAAUAUUACGCAGG | -1.51 ± 0.11 | 0.11 ± 0.097
96 | AAUCAGCAAUAUUACGCAGU | -0.402 ± 0.066 | -0.257 ± 0.078
